No end group written: not given here. *: point of attachment. Biotin = O=C1N[C@H]2[C@H](CS[C@H]2CCCCC(=O)*)N1
Molecular target: T1, 6xHis tagged BCL-xL (UniProt Q07817-1 2-212)
T1 construct: BCL-xL; The cloning section gives BCL-xL only an N-terminal ULP1-cleavable SMT3 tag; also called self-made 6×His tagged BCL-xL; WT BCL-xL; source: self-made; E. coli BL21 (DE3) codon plus
Assay: AlphaScreen or HTRF; AlphaScreen displacement binding assay: Biotin-Bim or Biotin-Bad (15 nM for WT, 50 nM for mutants), 6xHis BCL-2 (25 nM WT, 50 nM mutants) or BCL-xL (10 nM WT, 50 nM mutants), compounds (753b, WH244) as displacers; anti-6xHis acceptor and streptavidin donor beads; 25 mM HEPES pH 7.5, 150 mM NaCl, 0.1% BSA, 0.005% tween 20; room temperature
Details: both partners purified

T1 sequence (Q07817 2-212): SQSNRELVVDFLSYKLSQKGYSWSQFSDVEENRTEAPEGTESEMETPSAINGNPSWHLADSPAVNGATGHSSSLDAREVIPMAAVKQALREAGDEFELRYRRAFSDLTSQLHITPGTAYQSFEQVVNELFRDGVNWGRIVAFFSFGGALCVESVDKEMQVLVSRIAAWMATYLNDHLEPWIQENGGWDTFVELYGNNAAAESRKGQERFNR

B1: Biotin-tagged Bad (peptide)
peptide: Biotin-LWAAQRYGRELRRMSDEFEGSFKGL
notes: Bad peptide (BH3 stretch); also called Biotin-[residues removed]
- binding result: binds

— article PMC10979003 (Nature Communications, 2024)
